{
  "source": "patent US8624002B2",
  "about": "“Prostaglandin E2 binding proteins and uses thereof” (AbbVie, Inc., priority 2008, dated 2014)",
  "molecules": {"B1": {"name": "Hu2B5.6: humanized 2B5-8.0; VH SEQ ID NO 70, VL SEQ ID NO 71 (antibody, V domains shown)", "VH": "EVQLVQSGAEVKKPGASVKVSCKASGYTFTKYWLGWVRQAPGQGLEWMGDIYPGYDYTHYNEKFKDRVTLTTDTSTSTAYMELSSLRSDDTAVYYCARSDGSSTYWGQGTLVTVSS", "VL": "DVVMTQTPLSLPVTPGEPASISCTSSQNIVHSNGNTYLEWYLQKPGQSPQLLIYKVSNRFSGVPDRFSGSGSGTDFTLKISRVEAEDVGVYYCFQVSHVPYTFGGGTKVEIKR"}},
  "key": {"[1]": {"assay": "Intrinsic thermodynamic stability by DSC", "assay_type": "physicochemical", "experimental": "The thermal stability of the anti-PGE2 antibodies was assessed using a DSC instrument. The DSC instrument used was an automated VP-DSC equipment with Capillary Cell (Microcal, GE Healthcare Ltd./Microcal, Buckinghamshire, UK). Unfolding of molecules was studied applying a 1° C./minute scan rate over a 25° C.-95° C. temperature range for samples at 1 mg/mL. Additional measurement parameters applied were a fitting period of 16 seconds, a pre-scan wait time of 10 minutes, and measurements were performed in none-feedback mode. Per individual measurement, 420 μL of sample/blank were filled into the DSC measurement sample holder, with a plate fill scheme as provided below. The thermograms obtained were fitted to a non two state model to obtain the midpoint temperatures and enthalpies of the different transitions.\n(§1) The stability of a series of clones (i.e., anti-PGE2 antibodies) of the parent anti-PGE2 antibody was assessed by using intrinsic thermodynamic clone stability determination using DSC (0.79 mg/mL clone concentration, formulated at pH 6 in a 10 mM citrate, 10 mM phosphate buffer) and by accelerated stability screening (0.79 mg/mL clone concentration, formulated at pH 6 in a 10 mM citrate, 10 mM phosphate buffer, for 7 days at 50° C.) where clone stability was monitored with SEC (Table 15)."}, "[2]": {"assay": "Biotin-PGE2 ELISA (PGE2-biotinamide binding to captured IgG)"}, "[3]": {"assay": "PGE2 competition ELISA, format not stated (biotin-PGE2 or ^3H-PGE2)", "assay_type": "binding", "conditions": "humanized antibodies table", "experimental": "Competition enzyme linked immunosorbent assays were performed to determine prostaglandin binding specificity for antibodies that bind prostaglandin E2, according to at least one of the two following methods.\nELISA plates (Costar 3369, Corning, N.Y.) were coated with 50 μl/well of anti-host Fc IgG (Sigma, St. Louis, Mo.) at 2 μg/ml in PBS (Invitrogen, Carlsbad, Calif.). Following an overnight incubation at 4° C., the plate was blocked with 200 μl Superblock (Pierce #37535, Rockford, Ill.). The IgG samples were diluted to 6 μg/ml in Assay Buffer (10% Superblock in PBS containing 0.05% Surfactamps (Pierce #37535, Rockford, Ill.). The PGE2-biotinamide was diluted to 3 nM in Assay Buffer. A titration curve in Assay Buffer was prepared for the prostaglandins PGA2 (Cayman Chemicals, Ann Arbor, Mich.), PGD2 (Cayman Chemicals, Ann Arbor, Mich.) and PGE2 (Cayman Chemicals, Ann Arbor, Mich.) starting at 300 nM by a 1:10 serial dilution. The reagents were added to tubes at a volume of 50 μl each/tube and preincubated for 1 hour at room temperature. Following the preincubation, the mix was transferred to the blocked plates and allowed to incubate for 1 hour at room temperature. Next, the plates were washed four times with Tween 20-Tris buffered solution (TTBS). Streptavidin polyhrp40 in Assay Buffer (Fitzgerald Industries, Concord, Mass.) at a 1:5000 dilution was then added to the wells and incubated for 45 minutes at room temperature. A final wash step was performed and the plates were developed using a single step TMB system (Sigma #T8665, Sigma, St. Louis, Mo.) and 100 μl/well 2N H2SO4. Plates were read at 450 nm on a Molecular Devices Spectramax plate reader (Sunnyvale, Calif.). […] IC50 number was determined using GraphPad Prism 5 (GraphPad Software, La Jolla, Calif.). The cross reactivity index was then calculated by IC50 of PGE2/IC50 of other prostaglandin(s).\nAlternatively, prostaglandin selectivity was determined using a ^3H-PGE2 competition ELISA. Plates were coated with 50 μL/well of 5 μg/ml of goat anti-human IgG (Fc) (Thermo Scientific # 31170, Hudson, N.H.) or goat anti-mouse IgG (Fc) (Thermo Scientific # 31125, Hudson, N.H.) in PBS and incubated overnight at 4° C. The following day plates were flicked and blotted dry. Plates were blocked with 200 μL/well of Superblock (Thermo Scientific # 37515, Hudson, N.H.), 1 hour at room temperature. Plates were flicked and blotted dry. Monoclonal antibodies were diluted to 0.04 μg/ml in PBST (Abbott Bioresearch Center, Worcester, Mass.)/10% Superblock and 50 μL of each was added to each well (2 ng/well) of the pre-blocked ELISA plate and incubated for 1 hour at room temperature. Wells were washed 3 times with PBS/0.1% Tween-20. ^3H-PGE2 (Perkin Elmer # NET-428, Waltham, Mass.) was diluted in PBST/10% Superblock to 6 nM (2× stock). Each prostaglandin (Cayman Chemicals, Ann Arbor, Mich.) was prepared in PBST+10% Superblock at various concentrations ranging from 2000 μM (2× stock) to 0.00004 μM (2×). Equal volumes of the ^3H-PGE2 solution and of each prostaglandin dilution were mixed. Fifty microliters of this mixture was then added to each well of the plate and incubated for 1 hour at room temperature. Wells were washed manually 6 times with PBST/10% Superblock and 50 μL of scintillation fluid (Perkin Elmer # 6013621, Waltham, Mass.) added to each well. Plates were read using a TopCount reader (Perkin Elmer, Waltham, Mass.) with a 5 minute count delay. IC50 number was determined using GraphPad Prism 5 (GraphPad Software, La Jolla, Calif.). The cross reactivity index was then calculated by IC50 of PGE2/IC50 of other prostaglandin(s)\nSeveral antibodies, named 19C9, 4F10 and 15F10 specific for PGE2 were isolated. […] The specificity of these antibodies for PGE2 was further determined by a competition ELISA with various prostaglandins as described in Example 1.B (Table 2). […]"}, "[4]": {"assay": "Accelerated stability screening monitored by SEC", "assay_type": "physicochemical", "conditions": "SEC", "experimental": "Size exclusion chromatography was used to separate proteins based on size. Proteins are carried in an aqueous mobile phase and through a porous stationary phase resin packed in a column. The retention time in the column is a function of the hydrodynamic size of the protein and the size of the pores in the packed resin bed. Smaller molecules can penetrate into smaller pores in the resin and are retained longer than larger molecules. Upon elution from the column the proteins are detected by UV absorbance. The SEC method used a TSK gel guard (TOSOH Biosciences, Montgomeryville, Pa., cat. no. 08543) and a TSK gel G3000SWxL (TOSOH Biosciences, Montgomeryville, Pa., cat. no. 08541). The mobile phase was 100 mM Na2HPO4, 200 mM Na2SO4, pH 7.0. The flow rate was 0.3 mL/minute. Injection volume was 20 μL of 1 mg/mL sample. The column temperature was room temperature. The autosampler temperature was 2-8° C. The total run time was 50 minutes. The detection was based on UV absorbance at 214 nm wavelength, with band width set at 8 nm, using reference wavelength at 360 nm with band width 100 nm.\nas §1"}},
  "data": [
    {"molecule": "B1", "values": [
      {"measurement": "Tm1 (° C.)", "setting": "[1]; 0.79 mg/mL, pH 6, 10 mM citrate, 10 mM phosphate", "result": 73.035, "unit": "°C"},
      {"measurement": "Tm2 (° C.)", "setting": "[1]; same buffer", "result": 75.585, "unit": "°C"},
      {"measurement": "Tm3 (° C.)", "setting": "[1]; same buffer", "result": 82.95, "unit": "°C"},
      {"measurement": "EC50", "setting": "[2]", "result": 89, "unit": "pM"},
      {"measurement": "Cross Reactivity Index (%) PGA2", "setting": "[3]; PGA2", "result": 0.15, "unit": "%"},
      {"measurement": "Cross Reactivity Index (%) PGD2", "setting": "[3]; PGD2", "result": "<0.01", "unit": "%"},
      {"measurement": "Cross Reactivity Index (%) PGE1", "setting": "[3]; PGE1", "result": 11, "unit": "%"},
      {"measurement": "Aggregate (%)", "setting": "[4]; 7 days storage at 50° C.", "result": 2.1577, "unit": "%"},
      {"measurement": "Fragment (%)", "setting": "[4]; 7 days storage at 50° C.", "result": 4.0253, "unit": "%"},
      {"measurement": "Monomer (%)", "setting": "[4]; 7 days storage at 50° C.", "result": 93.817, "unit": "%"},
      {"measurement": "Fragment (%)", "setting": "[4]; start of stability study", "result": 2.7275, "unit": "%"},
      {"measurement": "Monomer (%)", "setting": "[4]; start of stability study", "result": 95.446, "unit": "%"},
      {"measurement": "Aggregate (%)", "setting": "[4]; start of stability study, 0.79 mg/mL, pH 6", "result": 1.8265, "unit": "%"}
    ]}
  ]
}
